Patent US20150368299A1 (published 2015)

T1: Aβ(12-42) globulomer (human)
T1 construct: Non-covalent oligomer; the subunit number was not measured
T1 peptide: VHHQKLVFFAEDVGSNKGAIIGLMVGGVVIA


What was measured:
Assay in all cases: dot blot with densitometry; Aβ form dotted on nitrocellulose in serial dilution, antibody 0.2 µg/ml; higher value = weaker recognition
Aβ(1-42) globulomer = molecular target: T2, Aβ(1-42) globulomer (human, UniProt P05067 672-713)
T2 construct: the number was not measured for this preparation; also called 38/48-kDa Aβ(1-42) globulomer; Aβ(1-42) globular oligomer
Experimental: (§1) The dot blot was developed with 10 ml BM Blue POD Substrate for 10 min. The development was stopped by intense washing of the dot blot with H₂O. Quantitative evaluation was done based on a densitometric analysis (GS800 densitometer (BioRad) and software package Quantity one, Version 4.5.0 (BioRad)) of the dot intensity. […] This threshold value was determined for every dot blot independently. The calculated value indicates the relation between recognition of Aβ(20-42) globulomer and the respective Aβ form for the given antibody.
(§2) The individual Aβ forms were applied in serial dilutions and incubated with the respective antibodies for immune reaction (1=Aβ(1-42) monomer, 0.1% NH₄OH; 2=Aβ(1-40) monomer, 0.1% NH₄OH; 3=Aβ(1-42) monomer, 0.1% NaOH; 4=Aβ(1-40) monomer, 0.1% NaOH; 5=Aβ(1-42) globulomer; 6=Aβ(12-42) globulomer; 7=Aβ(20-42) globulomer; 8=Aβ(1-42) fibril preparation; 9=sAPPα (Sigma); (first dot: 1 pmol)).

Aβ(12-42) globulomer = molecular target: T1, Aβ(12-42) globulomer
Experimental: as §1, §2

Aβ(1-42) fibril = molecular target: T3, Aβ(1-42) fibril (human, UniProt P05067 672-713)
T3 construct: also called Aβ(1-42) fibrils; Aβ(1-42) fibril preparation
Experimental: as §1, §2

[1] = molecular target: T4, Aβ(1-42) monomer in 0.1% NH4OH (human)
T4 construct: The range counts on the Aβ peptide; also called Aβ(1-42) monomer, 0.1% NH4OH
Experimental: as §1, §2

[2] = molecular target: T5, Aβ(1-40) monomer in 0.1% NH4OH (human)
T5 construct: The range counts on the Aβ peptide; also called Aβ(1-40) monomer, 0.1% NH4OH
T5 sequence (peptide, as listed by the source): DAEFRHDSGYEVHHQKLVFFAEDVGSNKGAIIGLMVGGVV
Experimental: as §1, §2

[3] = molecular target: T6, Aβ(1-42) monomer in 0.1% NaOH (human)
T6 construct: also called Aβ(1-42) monomer, 0.1% NaOH
Experimental: as §1, §2

Binder | dot blot relation of recognition of Aβ(20-42) globulomer to recognition of this Aβ form (Aβ(1-42) globulomer) | dot blot relation of recognition of Aβ(20-42) globulomer to recognition of this Aβ form (Aβ(12-42) globulomer) | dot blot relation of recognition of Aβ(20-42) globulomer to recognition of this Aβ form (Aβ(1-42) fibril) | dot blot relation of recognition of Aβ(20-42) globulomer to recognition of this Aβ form [1] | dot blot relation of recognition of Aβ(20-42) globulomer to recognition of this Aβ form [2] | dot blot relation of recognition of Aβ(20-42) globulomer to recognition of this Aβ form [3]
murine monoclonal anti-Aβ(20-42) globulomer antibody m10B3 (antibody, V domains shown, Murine hybridoma antibody from mice immunized with Aβ(20-42) globulomer; also called mAb 10B3; Anti-Aβ monoclonal antibody clone m10B3) VH: EVKLVESGGGLVQPGGSRKLSCAASGFTFSDYEMVWVRQAPGEGLEWVAYISSGSRTIHYADTVKGRFTISRDNPKNTLFLQMSSLRSEDTAMYYCARTLLRLHFDYWGQGTILTVSS VL: not shown | 57000 | 41000 |  |  |  | 
Anti-Aβ monoclonal antibody clone 6E10 (Covance cat. no. SIG-39320) (antibody, V domains shown) VH: EVQLQQSGAELVKPGASVKLCTASGFNIKDTYIHWVKQRPEQGLEWIGRFDPVNVNTRYDSRFRGKATITSDASSNTAYLHLNSLTSEDTAVYYCSRSYYNGRRRFTYWGQGTLVTVSA VL: DIVMTQSPSSLTVTAGEKVALTCKASQSLLSSGNQKNYLTWYQQKPGQPPKLLIYWASIRESGVPDRFTGSGSGTFFTLTISSVQAEDLAVYYCQNDYNYPFTFGSGTKLEIK |  | 6 |  |  |  | 
murine monoclonal anti-Aβ(20-42) globulomer antibody m4C9 (antibody, V domains shown, Murine hybridoma antibody from mice immunized with Aβ(20-42) globulomer; also called mAb 4C9; Anti-Aβ monoclonal antibody clone m4C9) VH: QVQLQQPGAELVKPGASVKLSCKAPGYTFTSYWMHWVKQRPGQGLEWIGRIDPKSGDTKYTEKFKSKATLTVDKPSSTAYMQLSSLTSEDSAVYYCTTMSKLSGTHAWFAYWGQGTLVTVSA VL: DIKMTQSPSSMYASLGERVTITCKASQDINSYLTWFQQKPGKSPKTLIYRANRLVDGVPSRFSGSGSGQDYSLTISSLEYEDMGIYYCLQYDEFPLTFGAGTKLELK | 30000 | 60000 | 32600 | 36000 | 27300 | 39500
